# Measured values: patent publication US10533038B2, “Methods of reducing TDP-43-mediated neuronal cytotoxicity in amyotrophic lateral sclerosis by a UPF1 polypeptide or polynucleotide” (Brandeis University, priority 2012, dated 2020)
# Entries after “also recorded” stand apart in the source; their conditions may differ.
# B1: UPF1: protein involved in nonsense-mediated mRNA decay (NMD), expressed in neurons; amino acid sequence SEQ ID NO: 2 (protein, listed as Homo sapiens)
# chain: MSVEAYGPSSQTLTFLDTEEAELLGADTQGSEFEFTDFTLPSQTQTPPGGPGGPGGGGAGSPGGAGAGAAAGQLDAQVGPEGILQNGAVDDSVAKTSQLLAELNFEEDEEDTYYTKDLPIHACSYCGIHDPACVVYCNTSKKWFCNGRGNTSGSHIVNHLVRAKCKEVTLHKDGPLGETVLECYNCGCRNVFLLGFIPAKADSVVVLLCRQPCASQSSLKDINWDSSQWQPLIQDRCFLSWLVKIPSEQEQLRARQITAQQINKLEELWKENPSATLEDLEKPGVDEEPQHVLLRYEDAYQYQNIFGPLVKLEADYDKKLKESQTQDNITVRWDLGLNKKRIAYFTLPKTDSDMRLMQGDEICLRYKGDLAPLWKGIGHVIKVPDNYGDEIAIELRSSVGAPVEVTHNFQVDFVWKSTSFDRMQSALKTFAVDETSVSGYIYHKLLGHEVEDVITKCQLPKRFTAQGLPDLNHSQVYAVKTVLQRPLSLIQGPPGTGKTVTSATIVYHLARQGNGPVLVCAPSNIAVDQLTEKIHQTGLKVVRLCAKSREAIDSPVSFLALHNQIRNMDSMPELQKLQQLKDETGELSSADEKRYRALKRTAERELLMNADVICCTCVGAGDPRLAKMQFRSILIDESTQATEPECMVPVVLGAKQLILVGDHCQLGPVVMCKKAAKAGLSQSLFERLVVLGIRPIRLQVQYRMHPALSAFPSNIFYEGSLQNGVTAADRVKKGFDFQWPQPDKPMFFYVTQGQEEIASSGTSYLNRTEAANVEKITTKLLKAGAKPDQIGIITPYEGQRSYLVQYMQFSGSLHTKLYQEVEIASVDAFQGREKDFIILSCVRANEHQGIGFLNDPRRLNVALTRARYGVIIVGNPKALSKQPLWNHLLNYYKEQKVLVEGPLNNLRESLMQFSKPRKLVNTINPGARFMTTAMYDAREAIIPGSVYDRSSQGRPSSMYFQTHDQIGMISAGPSHVAAMNIPIPFNLVMPPMPPPGYFGQANGPAAGRGTPKGKTGRGGRQKNRFGLPGPSQTNLPNSQASQDVASQPFSQGALTQGYISMSQPSQMSQPGLSQPELSQDSYLGDEFKSQIDVALSQDSTYQGERAYQHGGVTGLSQY
# Tests used:
# [1] = test system: ALS patients; details: some ALS patients; cited from earlier work
# [2] = test system: motor neurons expressing FUS; experiment: Survival of motor neurons expressing disease-associated FUS and UPF1; type: cell-based, mice or human; details: UPF1 expressed in cells expressing FUS; data not shown
# Text: (§1) To test the efficacy of UPF1 in reducing TDP-43 or FUS-mediated cytotoxicity in neurons, UPF1 was expressed in motor neurons expressing disease-associated FUS or TDP-43. Motor neurons were either isolated from mice or created from fibroblasts taken from human ALS patients using iPS cell techniques (described in Yamanaka et al., Cell 126:663-676 (2006)). FUS or TDP-43 were tagged with EGFP (Enhanced Green Fluorescent Protein) and expressed in motor neurons, which were visualized by fluorescent microscopy using mApple.
# (§2) The motor neurons died within a few days of FUS or TDP-43 expression due to toxicity of these ALS-related proteins. UPF1 was expressed in the motor neurons and Kaplan-Meyer survival curves were determined.
# [3] = test system: wild type neurons; experiment: Kaplan-Meyer survival of wild type motor neurons expressing UPF1; type: cell-based, mice or human; details: UPF1 expression in motor neurons; FIG. 1A
# Text: as §1, §2
# [4] = test system: FUS/TLS toxicity in yeast; details: yeast model of ALS; Ju et al., PLoS Biol. 2011; cited from earlier work
# [5] = test system: ALS-associated mutants of SOD1; experiment: Rescue of toxicity of ALS-associated mutants of SOD1 by UPF1 expression; type: cell-based
# [6] = test system: ALS-associated TDP-43 mutations in yeast; experiment: Yeast model of ALS: suppression of cytotoxicity of TDP-43 mutations; type: cell-based
# [7] = test system: TDP-43; experiment: Cytoplasmic level of TDP-43 in neuronal cells expressing UPF1; type: cell-based; details: expression of UPF1
# Text: (§3) The present invention encompasses the surprising finding that NMD agents are useful, among other things, in the treatment or prevention (i.e., delay of onset) of ALS. […] Accordingly, in some embodiments, an NMD agent is provided to the central nervous system of a subject, e.g., a subject suffering from or susceptible to ALS. In some embodiments, an NMD agent is provided to one or more of target cells or tissues of brain, spinal cord, and/or peripheral organs. In some embodiments, target cells or tissues include those cells or tissues that display a disease-associated pathology, symptom, or feature. In some embodiments, target cells or tissues include those cells or tissues in which TDP-43 or FUS/TLS is expressed at an elevated level, e.g., cells in which TDP-43 or FUS/TLS is expressed at an elevated level in the cytoplasm of the cells. As used herein, a target tissue may be a brain target tissue, a spinal cord target tissue and/or a peripheral target tissue.
# [8] = test system: motor neurons expressing TDP-43; experiment: Kaplan-Meyer survival of motor neurons expressing disease-associated TDP-43 and UPF1; type: cell-based, mice or human; details: UPF1 expressed in motor neurons expressing EGFP-tagged TDP-43; FIG. 1B
# Text: as §1, §2
# [9] = test system: FUS/TLS; experiment: Cytoplasmic level of FUS/TLS in neuronal cells expressing UPF1; type: cell-based; details: expression of UPF1
# Text: as §3
Molecule,extension of lifespan of ALS patients [1],toxicity of FUS in motor neurons [2],effect on survival of wild type neurons [3],toxicity of FUS/TLS in yeast [4],rescue of toxicity of ALS-associated mutants of SOD1 [5],cytotoxicity of ALS-associated TDP-43 mutations in yeast [6],cytoplasmic levels of TDP-43 in the neuronal cells [7],toxicity of TDP-43 in motor neurons [8],cytoplasmic levels of FUS/TLS in the neuronal cells [9]
Nc1nc2ccc(OC(F)(F)F)cc2s1 [riluzole],about 3 months,–,–,–,–,–,–,–,–
B1,–,reduces cellular toxicity,no effect,able to rescue toxicity; also recorded: suppressed toxicity,unable to rescue,able to suppress the cytotoxicity,no effect,reduces cellular toxicity; also recorded: completely eliminate the toxicity of TDP-43 in a dose-dependent manner,no effect
